The nanobody polyreactivity screen of Harvey et al. (2022)

Assay: yeast display, Sf9 membrane polyspecificity reagent, FACS + sequencing; frameworks hold sequencing errors
Procedure, shortened: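 Polyreactivity labels are assigned by the sorting gate from which each nanobody was recovered. The gates were low and high (top ~1%), set on anti-HA fluorescence for expression and streptavidin fluorescence for reagent binding. Before sorting, galactose-induced (36–48 hours) yeast display cells were stained for 1 hour at 4 °C with 10% biotinylated, detergent-solubilized Sf9 membrane reagent.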

| Sequence | polyreactivity (PSR sort gate) |
| --- | --- |
| QVQLVESGGGLVQAGGSLRLSCAASGRILKYYAMGWYRQAPGKERELVAAITSDVNTYYADSVKGRFTISRDNAKNTVYLQMNSLKPEDTAVYYCNADADDYRDYQDYDYWGQGTQVTVSS | low polyreactivity |
| QVQLVESGGGLVQAGGSLRLSCAASGRILLFYAMGWYRQAPGKERELVASIDYSGGSTTYADSVKGRFTISRDNAKNTVYLQMNRLKPEDTAVYYCNAEAWWYFWFDYWGQGTQVTVSS | low polyreactivity |
| QVQLVESGGGLVQAGGSLRLSCAASGRILPRNAMGWYRQAPGKERELVAAISWDGGSTYYADSVKGRFTISRDNAKNTVYLPMIRLKPEDTAVYYCATDYPSLHRGMDYWGQGTQVTVSS | low polyreactivity |
| QVQLVESGGGLVQAGGSLRLSCAASGRILPRNAMGWYRQAPGKERELVATIDYSVGSTYYADSVKGRFTISRDNAKNTVYLQMNSLKPEDTAVYYCNAQVLVRPIQGEYGYWGRGTQVTVSS | low polyreactivity |
| QVQLVESGGGLVQAGGSLRLSCAASGRILPRNSMGWSRQAPGKERELVAGISSDGSTKYADSVKGRFTISRDNAKNTVYLQMNSLKPEETAVYYCAADVVYDPNLYGYWGQGTQVTVSS | low polyreactivity |
| QVQLVESGGGLVQAGGSLRLSCAASGRILPWYAMGWYRQAPWKERELVAGISSNGGSTYYADSVKGRFTSSRDNPKNTVYLQMNSLKTEDTAVYYCAARVWYWRHYPSDYWGQGTQVTVSS | high polyreactivity |
| QVQLVESGGGLVQAGGSLRLSCAASGRILQYNVMGWYRQAPGKERELVATISSGGTTNYADSVKGRFTISRDNAKNTVYLQMNSLKPEDTAVYYCAAGLPRKRVQYDYWGQGTQVTVSS | low polyreactivity |
| QVQLVESGGGLVQAGGSLRLSCAASGRILRPNAMGWYRQAPGKEREMVAAISVSGGRTYYADSVKGRFTISRDNAKNTVYLQMNSLKPEDTAVYYCAAKYKRGYDYWGQGTQVTVSS | high polyreactivity |
| QVQLVESGGGLVQAGGSLRLSCAASGRILRTYAMGWYRQPPGKETELVAAITWSGASTYYADSVKGRFTISRDNAMNTVYLQMNSLKPEDTAVYYCNALSPGYRIYDYWGQGTQETVSS | high polyreactivity |
| QVQLVESGGGLVQAGGSLRLSCAASGRILSSYAMGWYRKAPGKERELVAVISSGGNTYYADSVKGRFTISRDNAKNTVYLQMNSLKPEDTAVYYCAAVRHRQTYTKYNYWGQGTKVTVSS | high polyreactivity |
| QVQLVESGGGLVQAGGSLRLSCAASGRILSWYAMGWYRQAPGKVRELVAAIDSGGRTNYADSVKGRFTISRDNAKNTVYLQMNSLKPEDTAVYYCAKEGYWPRYWERYDYWGQGTQVTLSS | low polyreactivity |
| QVQLVESGGGLVQAGGSLRLSCAASGRILSYYAMGWYRQAPGKERELVAAITRGGSTYYADSVKGRFTISRDNAKNTVYLQMNSLKPEDTAVYYCAARKKTTYRDWGRHDYWGQGTQVTVSS | high polyreactivity |
| QVQLVESGGGLVQAGGSLRLSCAASGRILSYYAMGWYRQAPGKETELVATISASGGSTYYADSVKGRFTISRDNAKNTVYLQMNSLKPEDTAVYYCAAARVPAYYLRYLYRTTYDYWGQGTQVTVSS | high polyreactivity |
| QVQLVESGGGLVQAGGSLRLSCAASGRILTNYVMGWYRQAPGKERELVAAITDSGGITYADSVKGRFTISRDNAKNTVYLQMNSLKPEDTAVYYCAAVRFFLYYFDFSAYDYWGQGTQVTVSS | low polyreactivity |
| QVQLVESGGGLVQAGGSLRLSCAASGRILTSNAMGWYRQAPGKERELVAAITYSGDSTYYADSVKGRFTISRDTAKNTVYLQMNSLKPEDTEVYYCAADVLKHFYSFGDERGFPFDYWGQGTQVTVSS | low polyreactivity |
| QVQLVESGGGLVQAGGSLRLSCAASGRILTTYAMGWYRQAPGKERELVAAITTIGGRTYYADSVKGRFTISRDNAKNTVYLQMNSLKPEDTAVYYCAADVYYEYDYWGQGTQVTVSS | low polyreactivity |
| QVQLVESGGGLVQAGGSLRLSCAASGRILTYYAMGWYRQAPGKERELVASISSNGGTYYADSVKGRFTISRDNAKNTVYLQMNSLKPEDTAVYYCNAKRVARYQYGASYNYWGQGTQVTVSS | high polyreactivity |
